According to patent publication US20120076762A1, “INDUCED PLURIPOTENT STEM CELL GENERATION USING TWO FACTORS AND P53 INACTIVATION” (THE SALK INSTITUTE FOR BIOLOGICAL STUDIES, priority 2009, published 2012):

B1: c-Myc: c-Myc retrovirus (pMXs) added to Oct4/Sox2/Klf4 as fourth factor (protein, UniProt P01108 1-454, looked up)
Myc proto-oncogene protein: MDFLWALETPQTATTMPLNVNFTNRNYDLDYDSVQPYFICDEEENFYHQQQQSELQPPAPSEDIWKKFELLPTPPLSPSRRSGLCSPSYVAVATSFSPREDDDGGGGNFSTADQLEMMTELLGGDMVNQSFICDPDDETFIKNIIIQDCMWSGFSAAAKLVSEKLASYQAARKDSTSLSPARGHSVCSTSSLYLQDLTAAASECIDPSVVFPYPLNDSSSPKSCTSSDSTAFSPSSDSLLSSESSPRASPEPLVLHEETPPTTSSDSEEEQEDEEEIDVVSVEKRQTPAKRSESGSSPSRGHSKPPHSPLVLKRCHVSTHQHNYAAPPSTRKDYPAAKRAKLDSGRVLKQISNNRKCSSPRSSDTEENDKRRTHNVLERQRRNELKRSFFALRDQIPELENNEKAPKVVILKKATAYILSIQADEHKLTSEKDLLRKRREQLKHKLEQLRNSGA
B2: Bcl-2: mouse Bcl-2 cDNA overexpressed from HIV pBOBI lentiviral vector; BAX antagonist (protein, UniProt P10417 1-236, looked up)
Apoptosis regulator Bcl-2: MAQAGRTGYDNREIVMKYIHYKLSQRGYEWDAGDADAAPLGAAPTPGIFSFQPESNPMPAVHRDMAARTSPLRPLVATAGPALSPVPPVVHLTLRRAGDDFSRRYRRDFAEMSSQLHLTPFTARGRFATVVEELFRDGVNWGRIVAFFEFGGVMCVESVNREMSPLVDNIALWMTEYLNRHLHTWIQDNGGWDAFVELYGPSMRPLFDFSWLSLKTLLSLALVGACITLGAYLGHK

Legend:
[1] = test system: Mouse embryonic fibroblasts (MEFs); assay: Reprogramming of mouse embryonic fibroblasts to iPS cells (Nanog-positive colonies); format: cell-based; settings: MEFs; for Reprogramming efficiency (Nanog-positive colonies / infected cells): 3F (Oct4/Sox2/Klf4), d12-14, error = s.d.; for Direction and grade of change in reprogramming efficiency (arrows): 3F, vs control
Description: VSV-G viruses were produced in HEK293T cells. For pMX-based and pMSCV-based retroviruses, vectors were transfected using CaPO4 or lipofectamin, following the manufacturers' directions. One day after transfection, culture medium was changed to new medium. For lentivirus, pBOBI-based^34 or pLVTHM-based^37 vectors were transfected by Lipofectamine™ 2000 (Invitrogen) according to the manufacturer's protocol. Six hours after transfection, the DNA-lipofectamine-complex was removed and the medium was replaced the next day. Two days after transfection, the supernatant containing viruses was collected and filtered through a 0.45 μm filter. Mouse iPS cells were induced as previously described^38,39. Briefly, mouse embryonic fibroblasts (passage 3 to 5) were infected (day 0) with pMX-based retroviruses together with pLVTHM-based lentivirus for shRNAs or pBOBI-based lentivirus for Bcl-2. On day 2, cells were passed onto new gelatin-coated plates. Medium was changed every 2 days. On day 12 to 14, cells were fixed for immunofluorescence study. For the Nutlin3a experiments, cells were treated starting from day 4. Reprogramming of human embryonic fibroblasts (IMR90) was done as previously described^2′^3. Briefly, IMR90 fibroblasts (passage 7 to 9) were infected (day 0) with pMSCV-based retroviruses+pLVTHM-based lentiviruses for p53 shRNA. On day 4 or 5, cells were passed onto feeder MEFs. Medium was changed every day. Around 3 weeks after infection, cells were fixed for immunofluorescence studies. Reprogramming of human primary keratinocytes was carried out essentially as described^6. Cells were co-infected with retroviral supernatants containing 3 or 4 reprogramming factors and p53-DD or GFP at a 1:2 ratio. To assess the reprogramming efficiency, cells were trypsinized 3 days after retroviral infection and 10^4 cells were plated onto 6-cm tissue culture dishes on top of irradiated human foreskin fibroblasts with hES cell medium.
The number of Nanog-positive colonies was calculated after immunostaining at d12-14. The total number of Nanog-positive colonies was divided by the number of infected cells. Error numbers indicate s.d. The term “s.d.” refers in the customary sense to standard deviation. The term “s.e.” refers in the customary sense to standard error. Student's t-tests were performed for statistical analysis. p=0.007 (p53-shRNA vs mock, n=4 in each), p=0.0006 (p53−/− vs WT, n=3 in each), p=0.009 (p21-shRNA vs mock, n=4 in each), p=0.0005 (Arf-shRNA vs mock, n=3 in each), p=0.028 (Arf/Ink4a-shRNA vs mock, n=3 in each), p=0.010 (Ctl(solvent) vs Nutlin-3(10 μM), n=3 in each), p=0.045 (3SA/3SA vs WT, n=3 in each), p=0.022 (Bcl-2 vs mock, n=4 in each), and p=0.012 (c-Myc versus mock, n=4 in each).

[2] = test system: MEFs; assay: TUNEL staining of apoptotic cells in factor-infected MEFs; format: cell-based, mouse; settings: 2-F, 3-F and 4-F experiments, five days after infection
Protocol: FIG. 13: Bcl-2 increased the efficiency of reprogramming. (FIG. 13a) MEFs were infected by retroviruses encoding 4 transcription factors (Oct4/Sox2/Klf4/c-Myc), 3 factors (Oct4/Sox2/Klf4), or 2 factors (Oct4/Sox2) with lentivirus encoding Bcl-2. Five days after infection, TUNEL-staining was performed. The percentage of apoptotic cells was analyzed (using at least five independent panels) and represented graphically. Error bars indicate s.d. (FIG. 13b) MEFs were infected by retroviruses encoding 3 factors (Oct4/Sox2/Klf4) in combination with mock or Bcl-2 expressing lentivirus. The fold change in the number of Nanog-positive colonies compared to mock (n=3) is shown. Error bars indicate s.d (n=3).

Row | Molecule | Reprogramming efficiency (Nanog-positive colonies / infected cells) [1] | Direction and grade of change in reprogramming efficiency (arrows) [1] | Fold increase in reprogramming / Nanog-positive colony formation vs control ([1]; 3-F) [fold] | Effect on apoptosis (TUNEL) [2]
1 | B1 | 0.517 ± 0.264% vs 0.114 + 0.054% | ↑↑ |  | 
2 | B2 | 0.268 ± 0.117% vs 0.100 + 0.062% | ↑↑ | 4 | suppressed apoptosis
